{
  "source": "patent US7326418B2",
  "about": "“Identification of novel factors that block programmed cell death or apoptosis by targeting JNK” (University of Chicago, priority 2001, dated 2008)",
  "target": "T1, ASK1 (Homo sapiens, UniProt Q99683)",
  "T1 sequence (Q99683 1-1374)": "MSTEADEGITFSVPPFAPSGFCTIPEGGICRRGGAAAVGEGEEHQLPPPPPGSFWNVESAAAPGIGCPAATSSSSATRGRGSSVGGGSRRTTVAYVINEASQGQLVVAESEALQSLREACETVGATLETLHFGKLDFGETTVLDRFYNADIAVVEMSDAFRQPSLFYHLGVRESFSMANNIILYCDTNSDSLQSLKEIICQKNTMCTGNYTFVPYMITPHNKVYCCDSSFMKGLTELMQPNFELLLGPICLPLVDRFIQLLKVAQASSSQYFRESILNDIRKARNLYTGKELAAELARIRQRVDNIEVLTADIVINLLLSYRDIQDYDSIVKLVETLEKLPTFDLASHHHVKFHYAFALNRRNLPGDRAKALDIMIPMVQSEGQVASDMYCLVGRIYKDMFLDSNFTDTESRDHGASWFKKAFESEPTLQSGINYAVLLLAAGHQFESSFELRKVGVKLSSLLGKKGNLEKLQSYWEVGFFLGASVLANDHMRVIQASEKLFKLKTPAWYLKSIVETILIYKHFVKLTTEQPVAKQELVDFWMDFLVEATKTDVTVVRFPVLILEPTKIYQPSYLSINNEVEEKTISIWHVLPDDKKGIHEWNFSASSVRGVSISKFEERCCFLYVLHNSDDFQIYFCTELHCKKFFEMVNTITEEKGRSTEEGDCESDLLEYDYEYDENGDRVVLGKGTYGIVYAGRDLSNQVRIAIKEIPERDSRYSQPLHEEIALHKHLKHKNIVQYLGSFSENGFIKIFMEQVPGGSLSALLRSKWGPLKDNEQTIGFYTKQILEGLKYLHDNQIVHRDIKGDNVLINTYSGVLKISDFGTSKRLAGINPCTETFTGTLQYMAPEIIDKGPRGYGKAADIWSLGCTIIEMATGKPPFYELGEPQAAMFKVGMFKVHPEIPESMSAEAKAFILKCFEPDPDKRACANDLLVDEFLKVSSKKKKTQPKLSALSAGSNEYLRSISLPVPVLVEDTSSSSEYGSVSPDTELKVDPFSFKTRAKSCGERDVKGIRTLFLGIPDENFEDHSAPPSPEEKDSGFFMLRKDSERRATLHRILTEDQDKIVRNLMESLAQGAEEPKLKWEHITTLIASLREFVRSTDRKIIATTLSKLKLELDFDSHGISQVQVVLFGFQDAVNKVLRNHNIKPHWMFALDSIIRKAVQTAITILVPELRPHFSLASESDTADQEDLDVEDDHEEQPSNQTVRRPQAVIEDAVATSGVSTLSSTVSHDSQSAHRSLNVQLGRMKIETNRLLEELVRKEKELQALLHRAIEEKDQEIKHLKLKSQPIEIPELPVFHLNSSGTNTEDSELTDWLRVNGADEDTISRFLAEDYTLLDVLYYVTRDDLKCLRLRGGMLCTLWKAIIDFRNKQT",
  "assay": "Kinase assay of immunoprecipitated FLAG-ASK1 with recombinant Gadd45β proteins",
  "type": "biochemical",
  "parameters": "expressed in transfected cells; host or cells: HEK-293; anti-FLAG immunoprecipitate",
  "conditions": "in vitro, even at high concentrations",
  "protocol": "Next, the functional consequences, in vitro, of the physical interactions of Gadd45β with kinases in the JNK pathway were assessed. Murine and human, full-length Gadd45J3 proteins were purified from E. coli as GST-Gadd45β and His6-tagged Gadd45β (His6 disclosed as SEQ ID NO: 46), respectively, according to standard procedures. Prior to employing these proteins in in vitro assays, purity of all recombinant polypeptides was assured by >98%, by performing Coomassie blue staining of SDS polyacrylamide gels. Then, the ability of these proteins, as well as of control GST and His6-EF3 (His6 disclosed as SEQ ID NO: 46)proteins, to inhibit kinases in the JNK pathways was monitored in vitro. FLAG-tagged JNKK2, JNKK1, MKK3, and ASK1 were immunoprecipitated from transiently transfected 293 cells using anti-FLAG antibodies and pre-incubated for 10 minutes with increasing concentrations of recombinant proteins, prior to the addition of specific kinase substrates (i.e. GST-JNK1 with JNKK1 and JNKK2; GST-p38[…] with MKK3; GST-JNNK1 or GST-JNKK2 with ASK1). […] These findings indicate that, upon binding to Gadd45β, JNKK2 is effectively inactivated.\nA question was whether Gadd45β inhibited active MKK7, in vitro. FLAG-MKK7 was immunoprecipitated from TNFα-treated or untreated 293 cells, and kinase assays were performed in the presence of purified His6-Gadd45β (His6 disclosed as SEQ ID NO: 46), GST-Gadd45β, or control proteins (FIG. 28d; see also FIG. 28g). […] Consistent with the in vivo findings (FIG. 27), the inhibitory activity of Gadd45β was specific. […] Indeed, the effects of Gadd45β on MKK7 phosphorylation by TNFα may be due inhibition of the MKK7 ability to auto-phoshorylate and/or to serve as substrate for upstream kinases. Altogether, the findings identify MKK7 as a target of Gadd45β, and of NF-[…]B, in the JNK cascade. Of interest, MKK7 is a selective activator of JNK, and its ablation abolishes JNK activation by TNFα. Thus, blockade of MKK7 is sufficient on its own to explain the effects of Gadd45β on JNK signaling—i.e. its specific and near-complete suppression of this signaling. […]",
  "data": [
    {"molecule": "GST-Gadd45β: full-length murine Gadd45β directly fused to GST, purified from E. coli (protein, left off: a dimerising Fc or GST, full-length murine Gadd45β directly fused to GST, purified from E. coli) MTLEELVASDNAVQKMQAVTAAVEQLLVAAQRQDRLTVGVYEAAKLMNVDPDSVVLCLLAIDEEEEDDIALQIHFTLIQSFCCDNDIDIVRVSGMQRLAQLLGEPAETLGTTEARDLHCLLVTNCHTDSWKSQGLVEVASYCEESRGNNQWVPYISLEER", "values": [
      {"measurement": "effect on ASK1 kinase activity", "result": "neither GST-Gadd45β nor His6-Gadd45β (His6 disclosed as SEQ ID NO: 46) had significant effects"}
    ]},
    {"molecule": "Gadd45β: purified recombinant His6-tagged Gadd45β protein; also used generically for the recombinant Gadd45β proteins (protein, UniProt O75293 1-160, looked up, His6 tag, purified recombinant His6-tagged Gadd45β protein; also used generically for the recombinant Gadd45β proteins) Growth arrest and DNA …: MTLEELVACDNAAQKMQTVTAAVEELLVAAQRQDRLTVGVYESAKLMNVDPDSVVLCLLAIDEEEEDDIALQIHFTLIQSFCCDNDINIVRVSGMQRLAQLLGEPAETQGTTEARDLHCLLVTNPHTDAWKSHGLVEVASYCEESRGNNQWVPYISLQER", "values": [
      {"measurement": "effect on ASK1 kinase activity", "result": "did not hamper"}
    ]},
    {"molecule": "His6-Gadd45β: human full-length Gadd45β purified from E. coli as His6-tagged protein (protein, UniProt O75293 1-160, looked up, full-length His6 tag, human full-length Gadd45β purified from E. coli as His6-tagged protein) MTLEELVACDNAAQKMQTVTAAVEELLVAAQRQDRLTVGVYESAKLMNVDPDSVVLCLLAIDEEEEDDIALQIHFTLIQSFCCDNDINIVRVSGMQRLAQLLGEPAETQGTTEARDLHCLLVTNPHTDAWKSHGLVEVASYCEESRGNNQWVPYISLQER", "values": [
      {"measurement": "effect on ASK1 kinase activity", "result": "neither GST-Gadd45β nor His6-Gadd45β (His6 disclosed as SEQ ID NO: 46) had significant effects"}
    ]}
  ]
}
